Source: FireProtDB (doi:10.1016/j.jmb.2005.09.091)

B1: Guanyl-specific ribonuclease Sa, P05798 (parent)
chain: DVSGTVCLSALPPEATDTLNLIASDGPFPYSQDGVVFQNRESVLPTQSYGYYHEYTVITPGARTRGTRRIITGEATQEDYYTGDHYATFSLIDQTC

Variants of: B1
Settings: Kitasatospora aureofaciens, pH 7, Thermal, Mops 30 mM, structure 1RGG, whole UniProt chain shown; for ddG of mutation (higher = less stable) / heat capacity change of unfolding: 52.6 °C

Variant	ddG of mutation (higher = less stable) (CD) [kcal/mol]	heat capacity change of unfolding (CD) [kcal/mol/K]	Tm (CD) [°C]	change of melting temperature, mutant - wild type (higher = more stable) (CD) [°C]	unfolding enthalpy (van 't Hoff) (CD) [kcal/mol]	ddG of mutation (higher = less stable) (DSC) [kcal/mol]	heat capacity change of unfolding (DSC) [kcal/mol/K]
DVSGTVCLSALPPEATDTLNLIASDGPFPYSQDGVVFQNRESVLPTQSYGYYHEYTVITPGARTRGTRRIITGEATQEYYYTGDHYATFSLIDQTC	-2.9	1.52	57.4	9.6	84	–	–
DVSGTVCLSALPPEATDTLNLIASDGPFPYSQDGVVFQNRESVLPTQSYGYYHEYTVITPGARTRGTRRIITGEATQEIYYTGDHYATFSLIDQTC	-2.9	1.52	57.4	9.6	89	-2.8	1.52
DVSGTVCLSALPPEATDTLNLIASDGPFPYSQDGVVFQNRESVLPTQSYGYYHEYTVITPGARTRGTRRIITGEATQEWYYTGDHYATFSLIDQTC	-2.3	1.52	55.4	7.6	88	-2.3	1.52
DVSGTVCLSALPPEATDTLNLIASDGPFPYSQDGVVFQNRESVLPTQSYGYYHEYTVITPGARTRGTRRIITGEATQEHYYTGDHYATFSLIDQTC	-1.8	1.52	–	–	–	-1.8	1.52
DVSGTVCLSALPPEATDTLNLIASDGPFPYSQDGVVFQNRESVLPTQSYGYYHEYTVITPGARTRGTRRIITGEATQELYYTGDHYATFSLIDQTC	–	–	56.6	8.7	75	-2.7	1.52
DVSGTVCLSALPPEATDTLNLIASDGPFPYSQDGVVFQNRESVLPTQSYGYYHEYTVITPGARTRGTRRIITGEATQERYYTGDHYATFSLIDQTC	-2.7	1.52	56.8	9	92	-2.7	1.52
DVSGTVCLSALPPEATDTLNLIASDGPFPYSQDGVVFQNRESVLPTQSYGYYHEYTVITPGARTRGTRRIITGEATQEEYYTGDHYATFSLIDQTC	0.3	1.52	47	-0.8	90	0.3	1.52
DVSGTVCLSALPPEATDTLNLIASDGPFPYSQAGVVFQNRESVLPTQSYGYYHEYTVITPGARTRGTRRIITGEATQEDYYTGDHYATFSLIDQTC	6.2	1.52	31.8	-16	57	6	1.52
